Measurements from the supplement of paper PMC10126150.
± gives the standard deviation of the averaged measurements.

Test system: ATP
Experiment: switch fluorescence ratio, 500 uM ATP over buffer (Cy3 cluster intensity, sum of 5 cycles each) (fold (ratio)); higher = stronger signal-on switching upon ATP binding; sequences stand for … in TCGTCGGCAGCGTCAGATGTGTATAAGAGACAGTTTTTTTTTTTTTTTTTTTTTTTTT…TC
Details: aptamer strand: ATP DNA aptamer (quencher-CACCTGGGGGAGTATTGCGGAGGAAGG + anchor), 100 nM annealed; ATP concentration: 500 uM
How it was run: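 Five buffer/ATP imaging cycles were run on Cy3-labelled switching-strand clusters on a modified Illumina MiSeq flow-cell, with NaOH stripping and re-annealing between cycles. In each cycle, clusters annealed to 100 nM quencher-labelled ATP aptamer were imaged in selection buffer, then after 15 min with 500 uM ATP at 22 °C. Per cluster, the fluorescence ratio is summed target-cycle over summed buffer-cycle Cy3 intensity, averaged per switch-domain sequence. Only clusters within 100-1000 RFU were kept.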
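Further: ATP exposure 15 min at 22 °C before imaging.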

Row | Sequence | switch fluorescence ratio
1 | TTTATGGAGA | 0.998 ± 0.015
2 | CATTTCAACC | 1.019 ± 0.0021
3 | TTCAGAGACT | 1 ± 0.034
4 | AATTGTAGTA | 0.996 ± 0.051
5 | GTGTAAATGG | 1.01 ± 0.013
6 | GAGTGTTCTT | 0.977 ± 0.01
7 | TTATGTTTTG | 0.999 ± 0.026
8 | AGGGTTTAAA | 1 ± 0.036
9 | AATGAAGGGG | 0.987 ± 0.031
10 | TCAAGGGCAG | 1.0257 ± 0.00011
11 | GTTCGTCCTC | 1.03 ± 0.031
12 | ATAGTAACAC | 1.06 ± 0.038
13 | GGGGCGGCTA | 0.984 ± 0.029
14 | AGCTTATTGC | 0.977 ± 0.015
15 | AAACCCGATA | 1.05 ± 0.025
16 | CTAGGGGTAC | 1.16 ± 0.17
17 | GTTTCAGGT | 0.991 ± 0.027
18 | TTGTTAAATG | 1.02 ± 0.056
19 | CGGTTTTAAG | 1.02 ± 0.018
20 | ATGGGGCACT | 0.9789 ± 0.0042
21 | CGCTCTTGTA | 0.991 ± 0.012
22 | TGCTGGTGTA | 1.02 ± 0.025
23 | GAGATTTAGG | 0.969 ± 0.034

Row | Sequence | switch fluorescence ratio
24 | AGGTCAGGCA | 1.002 ± 0.0075
25 | GGTAATAGAG | 0.987 ± 0.05
26 | TACGCGGGCA | 1.07 ± 0.11
27 | TTTATGCTTG | 0.974 ± 0.044
28 | AAAAAGTATG | 1 ± 0.026
29 | TTTATCACGT | 0.975 ± 0.0077
30 | TCGGGGTTCG | 0.992 ± 0.03
31 | TTTTAAGCAG | 1.05 ± 0.036
32 | TGATGCGGAT | 1.016 ± 0.0013
33 | ATTAATTCCG | 1.02 ± 0.0097
34 | TTGAGCGGGT | 1.11 ± 0.091
35 | TATGTGATGG | 0.9874 ± 0.0053
36 | CATGTGGCGG | 0.995 ± 0.0016
37 | TAGCGGGCGC | 0.986 ± 0.032
38 | GAAAAAGGAC | 1.27 ± 0.32
39 | TTTTGACACG | 0.959 ± 0.03
40 | CGGGGGCTG | 1 ± 0.039
41 | GATTTGGGAC | 1.03 ± 0.05
42 | ATAGGTTTTG | 0.9864 ± 0.004
43 | GCTGCTTTTT | 1.01 ± 0.041
44 | AGTGAGAATT | 1.013 ± 0.01
45 | TTCCTACGAT | 1.42 ± 0.56
46 | ATTAAATGAG | 1.01 ± 0.022

Row | Sequence | switch fluorescence ratio
47 | TTTATAGCT | 1.02 ± 0.027
48 | CGACGATCGT | 0.971 ± 0.028
49 | ACTTGATCGC | 1.03 ± 0.03
50 | GGGCTATTTA | 1 ± 0.011
51 | GTTTACTCGT | 1.02 ± 0.012
52 | TCGGGCAGCG | 0.989 ± 0.058
53 | GATTCCGAGC | 1.44 ± 0.53
54 | TCACACAGGC | 1.08 ± 0.16
55 | CAAGTCTATG | 0.973 ± 0.036
56 | ACTAATGGGC | 1.03 ± 0.026
57 | CCCAATTTGA | 1.06 ± 0.014
58 | ATCGGAGTTC | 0.989 ± 0.047
59 | TTTCGTTTTC | 1.08 ± 0.1
60 | GTGTATGGGA | 0.967 ± 0.033
61 | TCTGAAATTT | 0.9727 ± 0.0067
62 | GTTGTGGGTA | 0.975 ± 0.034
63 | GGGAATCAAG | 0.9862 ± 0.0097
64 | TATTAATCGA | 1 ± 0.016
65 | GTGGGTTGTG | 0.978 ± 0.04
66 | ATTATGAATG | 0.989 ± 0.0071
67 | CCGTTTGGTC | 1.02 ± 0.019
68 | GTGATAAGCG | 1.03 ± 0.04
69 | GGGCGAGAGG | 1.02 ± 0.033

Row | Sequence | switch fluorescence ratio
70 | TAATATTCAA | 1.03 ± 0.014
71 | TTTCGCTATG | 1.04 ± 0.024
72 | TGAGTCCATT | 0.985 ± 0.018
73 | TTTGTTGTTG | 0.984 ± 0.03
74 | AAGAAGTGTT | 1.003 ± 0.0039
75 | GTTTGTACAC | 0.986 ± 0.054
76 | ATGTTCCTTT | 0.999 ± 0.023
77 | CTGTAGGGGG | 1.07 ± 0.13
78 | TGAGGGTTCT | 0.979 ± 0.02
79 | TTTTGGCT | 1.02 ± 0.025
80 | TCAGGGGGTG | 1.05 ± 0.11
81 | TGAGTTGGTT | 0.973 ± 0.026
82 | ATAAGCGAAG | 0.993 ± 0.028
83 | AAGTTGCGGA | 0.975 ± 0.019
84 | GGTACTGGAC | 1.087 ± 0.0021
85 | CTGTATTAGT | 1.02 ± 0.027
86 | GGGGAAGGAA | 0.998 ± 0.027
87 | GGATTTTGTG | 0.994 ± 0.021
88 | TAGGTATGCG | 1.18 ± 0.037
89 | AGGGGGAGTG | 0.987 ± 0.036
90 | TAATTTTAGC | 0.9913 ± 0.0086
91 | CTGGGTAATA | 1.08 ± 0.047
92 | AGAAAGGGGG | 0.9954 ± 0.0038

Row | Sequence | switch fluorescence ratio
93 | TAAATTTTCT | 1.06 ± 0.015
94 | GATGTTATTC | 0.978 ± 0.011
95 | AAATTCGCTG | 1.01 ± 0.095
96 | CCCAGATTTT | 1.02 ± 0.03
97 | TAGTGATGCG | 0.967 ± 0.025
98 | GCTGTTTACG | 1.03 ± 0.031
99 | TTAAAGTAGC | 1.02 ± 0.017
100 | TGCCGGGAGT | 1.41 ± 0.61
101 | GGGGGAGTGA | 0.972 ± 0.029
102 | TGGGATACAG | 0.982 ± 0.026
103 | GAAACAGGAT | 1.02 ± 0.058
104 | GACGTGGTTT | 0.994 ± 0.046
105 | ACCGGTGCTT | 1.04 ± 0.032
106 | GGTAGACTTT | 0.967 ± 0.017
107 | CTAGGTCGGA | 1.01 ± 0.021
108 | GGCGAAATGG | 1.06 ± 0.059
109 | GCCGGGGTGA | 1.04 ± 0.043
110 | TGAAAGGGAT | 0.988 ± 0.077
111 | GGGTTTTTAC | 1.03 ± 0.033
112 | TAAAAGGGGG | 0.999 ± 0.034
113 | TTGCTTGGTG | 1.03 ± 0.017
114 | GGATTAAAAT | 0.997 ± 0.028
115 | GGGCTAACCT | 1.32 ± 0.043

Row | Sequence | switch fluorescence ratio
116 | ACGACTGGGG | 1.02 ± 0.03
117 | GGGTATTATG | 1.02 ± 0.028
118 | AGAGGGAGTA | 1 ± 0.022
119 | GTGGTTTTCG | 1.03 ± 0.062
120 | CCACTTGGTC | 1.06 ± 0.064
121 | CGCGAAGAAC | 1.039 ± 0.0088
122 | AAACTGGATG | 0.9783 ± 0.0039
123 | CGCGGATTCT | 1.04 ± 0.021
124 | GGAACGCAGG | 0.9981 ± 0.0022
125 | ATGGGACTTT | 1.02 ± 0.037
126 | TGATACTGAT | 1.02 ± 0.058
127 | ATTTTGGCGA | 1.02 ± 0.029
128 | GTTAGGTTTT | 1 ± 0.017
129 | GCGAATCGGT | 1.01 ± 0.022
130 | TGCTTTTCCG | 1.1 ± 0.07
131 | GGGCTTTGTG | 1 ± 0.01
132 | TTACGGGTGG | 1.01 ± 0.044
133 | CTTGTCCAGC | 1.04 ± 0.037
134 | AGGGCGGTCT | 1.07 ± 0.18
135 | ATTTCGTCGA | 0.991 ± 0.019
136 | TTGGTTGGAG | 0.996 ± 0.021
137 | TGGGTATGTT | 1.02 ± 0.014
138 | GCATTGTGTT | 0.991 ± 0.052

Row | Sequence | switch fluorescence ratio
139 | GGGTATTACT | 1.03 ± 0.017
140 | CGGGGATAAG | 0.981 ± 0.011
141 | CATAGGTCGG | 0.974 ± 0.021
142 | AAAGCTGGGT | 1 ± 0.026
143 | CGTTTAAAAG | 0.975 ± 0.022
144 | TTAGTAGTGT | 0.973 ± 0.0063
145 | GGGCGGGCGC | 1.06 ± 0.027
146 | AGCTGAGTAG | 0.997 ± 0.035
147 | AGTTGTTGGA | 1 ± 0.047
148 | GGTCTAGAGT | 1 ± 0.014
149 | TTATGGCGCC | 0.9862 ± 0.0046
150 | CTGATTTGTA | 1 ± 0.053
151 | TAACAATTTC | 1.01 ± 0.02
152 | GATGGAGGGC | 1.05 ± 0.039
153 | AATGTAGGGA | 1.06 ± 0.051
154 | GGTAAAGCAT | 1.027 ± 0.006
155 | ATAAAATTA | 1.011 ± 0.01
156 | TGGTTATGGT | 0.992 ± 0.037
157 | GTGCCCTGAC | 1.29 ± 0.041
